Experimental data taken from publication PMC4417174.

Test system: PU.1ΔN167 (ETS domain) (murine)
Assay: DMS footprinting
Conditions: saturating protein; Footprinting: 10 mM Tris-HCl pH 7.4, 150 mM NaCl, 0.1 mM EDTA, 0.5 g/l BSA, 0.1 g/l salmon sperm DNA; EMSA: 12% PAGE, 1x TBE, 0.1-10 uM protein; DLS: PBS, 25 C.

Substance: PU.1 high-affinity site, 206-bp footprinting fragment
- binding signal (% protection of core guanines vs unbound): 90
